Experiments:
[1] = molecular target: Protein disulfide-isomerase A4 (Homo sapiens) (UniProt P13667); test: PIF-agarose affinity extraction of normal human liver lysate 2, LC-MS/MS
[2] = molecular target: Delta-aminolevulinic acid dehydratase (Homo sapiens) (UniProt P13716); test: as above
[3] = molecular target: 78 kDa glucose-regulated protein (Homo sapiens) (UniProt P11021); test: as above
[4] = molecular target: Activated RNA polymerase II transcriptional coactivator p15 (Homo sapiens) (UniProt P53999); test: as above
[5] = molecular target: Alcohol dehydrogenase 1B (Homo sapiens) (UniProt P00325); test: as above
Chain of Alcohol dehydrogenase 1B (Homo sapiens) (P00325 2-375 limits assumed): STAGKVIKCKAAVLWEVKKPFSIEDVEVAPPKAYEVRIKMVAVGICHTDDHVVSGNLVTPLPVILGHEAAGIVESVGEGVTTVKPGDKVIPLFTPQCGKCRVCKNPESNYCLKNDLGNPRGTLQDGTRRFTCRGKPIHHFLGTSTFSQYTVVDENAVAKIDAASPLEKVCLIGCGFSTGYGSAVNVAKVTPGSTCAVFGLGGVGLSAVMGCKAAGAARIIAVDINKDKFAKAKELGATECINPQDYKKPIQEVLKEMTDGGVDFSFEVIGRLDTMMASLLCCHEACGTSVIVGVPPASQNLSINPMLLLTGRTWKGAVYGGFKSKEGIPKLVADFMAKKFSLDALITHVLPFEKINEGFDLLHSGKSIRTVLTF

[6] = molecular target: Alcohol dehydrogenase 4 (Homo sapiens) (UniProt P08319); test: as above
[7] = molecular target: Protein disulfide-isomerase A3 (Homo sapiens) (UniProt P30101); test: as above
Chain of Protein disulfide-isomerase A3 (Homo sapiens) (P30101 25-505 limits assumed): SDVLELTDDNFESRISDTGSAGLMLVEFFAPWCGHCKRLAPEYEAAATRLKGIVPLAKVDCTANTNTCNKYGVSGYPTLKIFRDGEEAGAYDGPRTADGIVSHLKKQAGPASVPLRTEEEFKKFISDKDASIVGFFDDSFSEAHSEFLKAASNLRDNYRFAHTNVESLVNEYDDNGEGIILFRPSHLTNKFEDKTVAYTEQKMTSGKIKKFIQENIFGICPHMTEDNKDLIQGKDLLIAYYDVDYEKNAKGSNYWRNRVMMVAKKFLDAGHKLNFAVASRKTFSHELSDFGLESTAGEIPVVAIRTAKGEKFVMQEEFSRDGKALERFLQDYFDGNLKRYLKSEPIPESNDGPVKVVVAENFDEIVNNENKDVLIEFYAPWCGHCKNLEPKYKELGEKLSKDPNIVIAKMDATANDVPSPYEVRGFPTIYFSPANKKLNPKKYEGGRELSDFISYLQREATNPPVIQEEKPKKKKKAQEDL

[8] = molecular target: Cytochrome b-c1 complex subunit 6, mitochondrial (Homo sapiens) (UniProt P07919); test: as above
Chain of Cytochrome b-c1 complex subunit 6, mitochondrial (Homo sapiens) (P07919 14-91 limits assumed, one chain of several): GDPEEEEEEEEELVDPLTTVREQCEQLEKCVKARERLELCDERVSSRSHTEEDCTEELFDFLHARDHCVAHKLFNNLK

[9] = molecular target: Protein disulfide-isomerase (Homo sapiens) (UniProt P07237); test: as above
Vimentin (Homo sapiens) [10] = molecular target: Vimentin (Homo sapiens) (UniProt P08670); test: as above
Chain of Vimentin (Homo sapiens) (P08670 2-466 limits assumed): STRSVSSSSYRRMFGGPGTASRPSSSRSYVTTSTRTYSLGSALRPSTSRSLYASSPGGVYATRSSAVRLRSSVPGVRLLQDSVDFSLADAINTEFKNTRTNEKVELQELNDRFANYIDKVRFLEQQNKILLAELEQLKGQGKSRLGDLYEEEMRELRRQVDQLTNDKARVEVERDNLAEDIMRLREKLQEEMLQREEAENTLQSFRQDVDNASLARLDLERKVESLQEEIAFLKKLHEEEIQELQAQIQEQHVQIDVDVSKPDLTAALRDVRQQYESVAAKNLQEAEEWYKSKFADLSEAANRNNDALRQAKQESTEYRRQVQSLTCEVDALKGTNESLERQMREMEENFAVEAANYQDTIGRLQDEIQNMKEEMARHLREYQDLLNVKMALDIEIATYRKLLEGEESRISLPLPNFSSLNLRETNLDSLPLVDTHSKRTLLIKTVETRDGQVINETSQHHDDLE

[11] = molecular target: Cytosolic 10-formyltetrahydrofolate dehydrogenase (Homo sapiens) (UniProt O75891); test: as above
Chain of Cytosolic 10-formyltetrahydrofolate dehydrogenase (Homo sapiens) (O75891 whole entry): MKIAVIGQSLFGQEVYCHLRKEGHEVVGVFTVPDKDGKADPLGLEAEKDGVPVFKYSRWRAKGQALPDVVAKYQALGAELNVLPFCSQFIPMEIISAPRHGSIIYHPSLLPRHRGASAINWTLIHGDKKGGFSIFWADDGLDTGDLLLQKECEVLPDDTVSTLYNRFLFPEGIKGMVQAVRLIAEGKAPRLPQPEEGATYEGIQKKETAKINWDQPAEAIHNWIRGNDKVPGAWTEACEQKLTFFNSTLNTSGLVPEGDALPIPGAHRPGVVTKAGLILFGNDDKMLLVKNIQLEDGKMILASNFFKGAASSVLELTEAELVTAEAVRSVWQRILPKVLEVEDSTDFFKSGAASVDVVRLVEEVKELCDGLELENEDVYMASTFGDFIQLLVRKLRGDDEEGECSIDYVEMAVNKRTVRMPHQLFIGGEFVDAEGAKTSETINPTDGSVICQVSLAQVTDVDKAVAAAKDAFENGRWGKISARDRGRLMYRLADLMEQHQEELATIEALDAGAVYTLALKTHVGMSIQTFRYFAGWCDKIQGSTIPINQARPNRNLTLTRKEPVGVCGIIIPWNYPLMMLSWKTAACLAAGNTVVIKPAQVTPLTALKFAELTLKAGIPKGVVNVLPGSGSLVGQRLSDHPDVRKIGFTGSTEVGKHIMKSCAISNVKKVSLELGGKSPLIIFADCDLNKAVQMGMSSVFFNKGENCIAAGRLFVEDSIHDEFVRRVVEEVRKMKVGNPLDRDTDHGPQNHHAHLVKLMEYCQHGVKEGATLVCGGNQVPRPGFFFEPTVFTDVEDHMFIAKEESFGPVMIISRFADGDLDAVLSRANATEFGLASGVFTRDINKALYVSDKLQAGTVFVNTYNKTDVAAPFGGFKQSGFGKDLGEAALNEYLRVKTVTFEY

[12] = molecular target: Calreticulin (Homo sapiens) (UniProt P27797); test: as above
[13] = molecular target: Parathymosin (Homo sapiens) (UniProt P20962); test: as above
Chain of Parathymosin (Homo sapiens) (P20962 2-102 limits assumed): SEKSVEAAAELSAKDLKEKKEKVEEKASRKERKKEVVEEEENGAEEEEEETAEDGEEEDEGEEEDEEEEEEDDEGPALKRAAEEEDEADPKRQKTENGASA

[14] = molecular target: Cytochrome b5 (Homo sapiens) (UniProt P00167); test: as above
Chain of Cytochrome b5 (Homo sapiens) (P00167 2-134 limits assumed): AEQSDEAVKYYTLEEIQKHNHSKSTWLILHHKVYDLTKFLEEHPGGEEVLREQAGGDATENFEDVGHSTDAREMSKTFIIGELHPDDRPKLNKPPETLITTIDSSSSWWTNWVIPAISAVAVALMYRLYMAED

[15] = molecular target: Membrane-associated progesterone receptor component 1 (Homo sapiens) (UniProt O00264); test: as above
Chain of Membrane-associated progesterone receptor component 1 (Homo sapiens) (O00264 whole entry): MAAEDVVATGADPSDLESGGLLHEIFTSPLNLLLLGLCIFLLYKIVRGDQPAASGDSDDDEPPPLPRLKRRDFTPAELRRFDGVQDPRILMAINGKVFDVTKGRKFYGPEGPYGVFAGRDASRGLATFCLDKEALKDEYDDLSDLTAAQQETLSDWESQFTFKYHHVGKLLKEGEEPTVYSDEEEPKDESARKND

[16] = molecular target: Tropomyosin alpha-4 chain (Homo sapiens) (UniProt P67936); test: as above
[17] = molecular target: Hepatoma-derived growth factor (Homo sapiens) (UniProt P51858); test: as above
Chain of Hepatoma-derived growth factor (Homo sapiens) (P51858 whole entry, the tested form may be a part): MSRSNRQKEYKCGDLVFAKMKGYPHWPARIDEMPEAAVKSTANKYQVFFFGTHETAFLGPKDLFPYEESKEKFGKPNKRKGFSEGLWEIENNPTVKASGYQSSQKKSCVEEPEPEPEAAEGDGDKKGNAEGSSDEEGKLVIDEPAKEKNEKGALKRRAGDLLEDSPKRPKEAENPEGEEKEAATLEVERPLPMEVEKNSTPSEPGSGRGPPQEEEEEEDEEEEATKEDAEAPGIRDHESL

[18] = molecular target: Enoyl-CoA hydratase domain-containing protein 2, mitochondrial (Homo sapiens) (UniProt Q86YB7); test: as above
Chain of Enoyl-CoA hydratase domain-containing protein 2, mitochondrial (Homo sapiens) (Q86YB7 36-292 limits assumed): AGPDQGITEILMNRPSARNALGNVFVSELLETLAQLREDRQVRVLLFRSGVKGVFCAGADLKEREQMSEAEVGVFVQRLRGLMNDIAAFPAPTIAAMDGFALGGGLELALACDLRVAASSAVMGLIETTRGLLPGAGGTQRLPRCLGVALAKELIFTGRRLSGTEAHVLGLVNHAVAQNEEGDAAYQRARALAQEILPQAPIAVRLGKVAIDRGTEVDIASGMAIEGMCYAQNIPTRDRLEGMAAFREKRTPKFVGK

[19] = molecular target: 14-3-3 protein epsilon (Homo sapiens) (UniProt P62258); test: as above
Chain of 14-3-3 protein epsilon (Homo sapiens) (P62258 whole entry): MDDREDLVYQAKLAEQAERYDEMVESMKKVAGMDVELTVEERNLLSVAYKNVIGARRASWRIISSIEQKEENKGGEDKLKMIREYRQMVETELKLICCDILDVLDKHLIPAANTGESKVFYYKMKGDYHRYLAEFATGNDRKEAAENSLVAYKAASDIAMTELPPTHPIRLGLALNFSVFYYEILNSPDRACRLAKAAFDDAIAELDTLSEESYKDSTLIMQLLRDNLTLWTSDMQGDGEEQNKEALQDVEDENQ

[20] = molecular target: Alpha-actinin-4 (Homo sapiens) (UniProt O43707); test: as above
[21] = molecular target: Calmodulin (Homo sapiens) (UniProt P0DP23); test: as above
[22] = molecular target: Alcohol dehydrogenase 1A (Homo sapiens) (UniProt P07327); test: as above
Chain of Alcohol dehydrogenase 1A (Homo sapiens) (P07327 2-375 limits assumed): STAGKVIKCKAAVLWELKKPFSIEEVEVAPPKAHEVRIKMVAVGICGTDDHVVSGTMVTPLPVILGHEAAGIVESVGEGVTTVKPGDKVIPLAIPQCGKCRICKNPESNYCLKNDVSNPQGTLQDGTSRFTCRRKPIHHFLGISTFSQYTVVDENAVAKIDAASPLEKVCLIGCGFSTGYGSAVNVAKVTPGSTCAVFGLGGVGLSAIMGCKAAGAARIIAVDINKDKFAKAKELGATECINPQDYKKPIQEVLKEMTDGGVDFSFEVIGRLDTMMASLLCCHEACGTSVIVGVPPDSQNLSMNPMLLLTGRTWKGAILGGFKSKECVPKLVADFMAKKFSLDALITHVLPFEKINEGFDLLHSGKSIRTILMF

[23] = molecular target: Transitional endoplasmic reticulum ATPase (Homo sapiens) (UniProt P55072); test: as above
[24] = molecular target: Peroxiredoxin-1 (Homo sapiens) (UniProt Q06830); test: as above
[25] = molecular target: Endoplasmin (Homo sapiens) (UniProt P14625); test: as above
[26] = molecular target: Delta-aminolevulinic acid dehydratase (Homo sapiens) (UniProt P13716); test: PIF-agarose affinity extraction of normal human liver lysate 3, LC-MS/MS
[27] = molecular target: 78 kDa glucose-regulated protein (Homo sapiens) (UniProt P11021); test: as above
[28] = molecular target: Alcohol dehydrogenase 1B (Homo sapiens) (UniProt P00325); test: as above
[29] = molecular target: Cytochrome b-c1 complex subunit 6, mitochondrial (Homo sapiens) (UniProt P07919); test: as above
Vimentin (Homo sapiens) [30] = molecular target: Vimentin (Homo sapiens) (UniProt P08670); test: as above
[31] = molecular target: Cytosolic 10-formyltetrahydrofolate dehydrogenase (Homo sapiens) (UniProt O75891); test: as above
[32] = molecular target: Parathymosin (Homo sapiens) (UniProt P20962); test: as above
[33] = molecular target: Membrane-associated progesterone receptor component 1 (Homo sapiens) (UniProt O00264); test: as above
[34] = molecular target: Hepatoma-derived growth factor (Homo sapiens) (UniProt P51858); test: as above
[35] = molecular target: Enoyl-CoA hydratase domain-containing protein 2, mitochondrial (Homo sapiens) (UniProt Q86YB7); test: as above
[36] = molecular target: 14-3-3 protein epsilon (Homo sapiens) (UniProt P62258); test: as above
[37] = molecular target: Calmodulin (Homo sapiens) (UniProt P0DP23); test: as above
[38] = molecular target: Alcohol dehydrogenase 1A (Homo sapiens) (UniProt P07327); test: as above

Chain of 78 kDa glucose-regulated protein (Homo sapiens) (P11021 19-654 limits assumed): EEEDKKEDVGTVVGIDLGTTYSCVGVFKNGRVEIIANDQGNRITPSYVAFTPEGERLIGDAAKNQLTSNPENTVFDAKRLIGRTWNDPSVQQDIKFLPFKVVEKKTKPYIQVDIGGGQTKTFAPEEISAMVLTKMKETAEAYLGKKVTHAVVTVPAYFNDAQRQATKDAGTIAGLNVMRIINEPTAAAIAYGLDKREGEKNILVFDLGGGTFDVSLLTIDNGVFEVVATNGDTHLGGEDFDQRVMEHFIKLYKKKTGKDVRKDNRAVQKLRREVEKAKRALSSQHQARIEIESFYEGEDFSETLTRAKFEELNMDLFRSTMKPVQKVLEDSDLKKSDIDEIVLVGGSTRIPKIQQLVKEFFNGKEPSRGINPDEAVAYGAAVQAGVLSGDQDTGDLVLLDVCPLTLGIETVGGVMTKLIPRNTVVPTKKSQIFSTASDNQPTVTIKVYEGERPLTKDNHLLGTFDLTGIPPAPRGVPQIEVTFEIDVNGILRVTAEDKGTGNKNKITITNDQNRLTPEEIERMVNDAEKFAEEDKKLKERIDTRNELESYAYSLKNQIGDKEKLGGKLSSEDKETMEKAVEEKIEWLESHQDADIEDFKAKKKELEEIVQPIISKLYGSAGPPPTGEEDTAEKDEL
Chain of Delta-aminolevulinic acid dehydratase (Homo sapiens) (P13716 whole entry, stated change not applied): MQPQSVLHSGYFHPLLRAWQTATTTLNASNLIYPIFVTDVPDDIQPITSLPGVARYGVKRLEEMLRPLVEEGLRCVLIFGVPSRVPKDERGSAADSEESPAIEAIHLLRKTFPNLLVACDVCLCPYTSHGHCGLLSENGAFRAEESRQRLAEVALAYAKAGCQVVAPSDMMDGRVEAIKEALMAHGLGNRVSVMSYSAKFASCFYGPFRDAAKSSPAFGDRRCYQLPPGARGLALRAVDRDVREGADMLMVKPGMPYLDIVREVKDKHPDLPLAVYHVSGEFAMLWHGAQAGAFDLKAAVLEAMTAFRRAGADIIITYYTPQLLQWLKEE

sPIF-1(15) (peptide) gave a % Coverage of the unique peptides observed [1] of 52%, a % Coverage of the unique peptides observed [2] of 49% and a % Coverage of the unique peptides observed [3] of 51%. For the same substance, the % Coverage of the unique peptides observed [4] was 44%, the % Coverage of the unique peptides observed [5] was 54% and the % Coverage of the unique peptides observed [6] was 52%. For the same substance, the % Coverage of the unique peptides observed [7] was 44%, the % Coverage of the unique peptides observed [8] was 53% and the % Coverage of the unique peptides observed [9] was 76%. For the same substance, the % Coverage of the unique peptides observed (Vimentin (Homo sapiens) [10]) was 49%, the % Coverage of the unique peptides observed [11] was 34% and the % Coverage of the unique peptides observed [12] was 69%. The % Coverage of the unique peptides observed [13] was 48%, the % Coverage of the unique peptides observed [14] was 56% and the % Coverage of the unique peptides observed [15] was 46%. For the same substance, the % Coverage of the unique peptides observed [16] was 48%, the % Coverage of the unique peptides observed [17] was 56% and the % Coverage of the unique peptides observed [18] was 42%. It also gave a % Coverage of the unique peptides observed [19] of 71%, a % Coverage of the unique peptides observed [20] of 45% and a % Coverage of the unique peptides observed [21] of 46%. For the same substance, the % Coverage of the unique peptides observed [22] was 53%, the % Coverage of the unique peptides observed [23] was 51% and the % Coverage of the unique peptides observed [24] was 58%. The % Coverage of the unique peptides observed [25] was 45%, the % Coverage of the unique peptides observed [26] was 25% and the % Coverage of the unique peptides observed [27] was 48%. It also gave a % Coverage of the unique peptides observed [28] of 66%, a % Coverage of the unique peptides observed [29] of 58% and a % Coverage of the unique peptides observed (Vimentin (Homo sapiens) [30]) of 52%. For the same substance, the % Coverage of the unique peptides observed [31] was 52%, the % Coverage of the unique peptides observed [32] was 82% and the % Coverage of the unique peptides observed [33] was 46%. The % Coverage of the unique peptides observed [34] was 52%, the % Coverage of the unique peptides observed [35] was 31% and the % Coverage of the unique peptides observed [36] was 64%. For the same substance, the % Coverage of the unique peptides observed [37] was 46% and the % Coverage of the unique peptides observed [38] was 54%.
